Measurements from patent US20140030267A1, “COMPOSITIONS, METHODS AND KITS RELATING TO RESISTIN” (The Trustees of the University of Pennsylvania, priority 1999, published 2014).

B1: resistin: mouse resistin (SEQ ID NO:2) in concentrated conditioned medium of recombinant 293T cells expressing resistin (protein)
chain: SSMPLCPIDEAIDKKIKQDFNSLFPNAIKNIGLNCWTVSSRGKLASCPEGTAVLSCSCGSACGSWDIRGGKVCHCQCARIDWTAARCCKLQVAS

Legend:
resistin gene expression = assay: Northern blot of resistin gene expression in 3T3-L1 adipocytes treated with TZD; format: cell-based, murine; conditions: rosiglitazone 1 μM
Procedure: 3T3-L1 cells were differentiated to adipocytes then treated with the indicated vehicles (ethanol [EtOH] or dimethylsulfoxide [DMSO]) or with the indicated TZD compounds (each at 1 μM). Then, RNA was prepared and analyzed using Northern blot analysis using resistin cDNA probe.
FIG. 6 is an image of a Northern blot depicting the time course of resistin expression down-regulation by rosiglitazone. BRL49653 (rosiglitazone) was used at a concentration of 1 μM in DMSO. The Northern blot was probed using mouse resistin cDNA. The position of resistin mRNA is indicated in the image. 3T3-L1 cells were differentiated to adipocytes then treated with rosiglitazone (1 μM) for the indicated times (in hours) before RNA was isolated. Resistin expression was examined using Northern analysis using resistin cDNA probe.
To clone and identify resistin, 3T3-L1 cells were differentiated into adipocytes using a standard protocol using differentiation medium (DM) containing dexamethasone, insulin, isobutylmethylxanthine, and fetal bovine serum as described in Green and Kehinde (1975, Cell 5:19-27) and Green and Meuth (1974, Cell 3:127-133). On the seventh day of culture, the cells were treated with either dimethylsulfoxide (DMSO) or 1 micromolar BRL49653 (rosiglitazone) in DMSO. […]

[1] = Glucose tolerance test in mice after administration of resistin; format: in vivo
Procedure: Prior to injection into animals, 30 ml of conditioned media harvested from recombinant 293T cells expressing resistin was concentrated into 5 ml using an Ultrafree-15 centrifugal filter device (Millipore).
Male and female mice, 9 weeks of age, were administered 200 microliters of concentrated conditioned media intraperitonially just prior to the dark cycle. Mice were consequently fasted overnight. Twelve hours later, a second intraperitional dose of concentrated CM was administered to each animal. Two hours after the second administration, the mice were given a glucose challenge of 10 microliters per gram of body weight of 20% glucose in PBS solution. Blood glucose levels were determined using a Fast-Take glucometer (Johnson & Johnson) at thirty minute intervals for a two hour period.
The blood glucose levels of mice dosed with resistin are depicted using dotted lines in FIG. 21, and control glucose values are indicated using solid lines (FIG. 21). More specifically, eight female mice (4 per group) were treated with either vehicle (solid lines) or resistin preparation (dashed lines) prepared using conditioned medium obtained from recombinant 293T cells as described elsewhere herein.

Molecule | time after exposure at which the effect on resistin expression is maximal (resistin gene expression) | blood glucose 30 minutes after glucose administration ([1]; female mice, intraperitoneal resistin preparation, 30 minutes after glucose challenge) | glucose tolerance ([1]; mice, resistin preparation)
CN(CCOc1ccc(CC2SC(=O)NC2=O)cc1)c1ccccn1 (stereo not drawn) [rosiglitazone] | 48 h |  | 
B1 |  | 395.+−0.67 mg/dl | reducing glucose tolerance to diabetic levels
